Experimental data published in US20100286035A1, “NEUROMEDIN U DERIVATIVE” (Takeda Pharmaceutical Company Limited, published 2010).
*1 amine or outer side, *2 acyl side, *3 side chain or, on linkers, in order; H or OH if unused. Primed or numbered codes have the meaning given here. Where no end group is shown, it is not given here. The star is where a group is joined. KMUS = cross-linking reagent joining N-terminal amine to thiol PEG, O=C1CC([*:3])C(=O)N1CCCCCCCCCCC(=O)[*:2]; GMBS = cross-linking reagent joining N-terminal amine to thiol PEG, O=C1CC([*:3])C(=O)N1CCCC(=O)[*:2]; SMCC = cross-linking reagent joining N-terminal amine to thiol PEG; Hexanoyl(6-succinimido-3yl) = O=C1CC([*:1])C(=O)N1CCCCCC(=O)[*:2]; AMBz = omega-aminocarboxylic acid linker (structure only drawn); AU″ = omega-aminocarboxylic acid linker (structure only drawn); ACP = omega-aminocarboxylic acid linker; Traut's reagent = N=C(CCCS)*; AB = not defined here; AD = not defined here; AP = not defined here; AU = not defined here

T1: human FM3 (NMUR1) (human)
T1 chain: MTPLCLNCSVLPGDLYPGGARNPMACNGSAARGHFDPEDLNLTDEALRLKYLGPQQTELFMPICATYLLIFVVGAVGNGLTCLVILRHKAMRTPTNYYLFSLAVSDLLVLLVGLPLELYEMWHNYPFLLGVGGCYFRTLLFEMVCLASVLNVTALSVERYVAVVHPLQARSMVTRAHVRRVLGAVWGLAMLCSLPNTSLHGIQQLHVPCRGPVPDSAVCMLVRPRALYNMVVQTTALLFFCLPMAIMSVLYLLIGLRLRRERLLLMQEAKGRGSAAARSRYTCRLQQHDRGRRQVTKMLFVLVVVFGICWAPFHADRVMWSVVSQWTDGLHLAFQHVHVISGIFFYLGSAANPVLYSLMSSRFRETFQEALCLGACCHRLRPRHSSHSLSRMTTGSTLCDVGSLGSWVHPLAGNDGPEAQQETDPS

B1: PEG30k(GMBS)-NMU-8 (peptide)
peptide: {PEG 30 kDa-GMBS}-YFLFRPRN-NH2
B2: PEG30k(EMCS)-NMU-8 (peptide)
peptide: {PEG 30 kDa-Hexanoyl(6-succinimido-3yl)}-YFLFRPRN-NH2
B3: PEG30k(KMUS)-NMU-8 (peptide)
peptide: {PEG 30 kDa-KMUS}-YFLFRPRN-NH2
B4: PEG30k(SMCC)-NMU-8 (peptide)
peptide: {PEG 30 kDa-SMCC}-YFLFRPRN-NH2
B5: PEG30k-NMU-8 (peptide)
peptide: {PEG 30 kDa}-YFLFRPRN-NH2
B6: PEG30k-Cys-NMU-8 (peptide)
peptide: C(PEG 30 kDa)FFLFRPRN-NH2
B7: PEG30k(AD)-NMU-8 (peptide)
peptide: {PEG 30 kDa-AD}-YFLFRPRN-NH2
modifications: reading uncertain; also: printed as PEG30k(AD)-NMU-8
B8: PEG30k(AU)-NMU-8 (peptide)
peptide: {PEG 30 kDa-AU″}-YFLFRPRN-NH2
B9: PEG30k(AMBz)-NMU-8 (peptide)
peptide: {PEG 30 kDa-AMBz}-YFLFRPRN-NH2
B10: (PEG20k)2(AD)-NMU-8 (peptide)
peptide: {(PEG20k)2-AD}-YFLFRPRN-NH2
modifications: reading uncertain; also: printed as (PEG20k)2(AD)-NMU-8
B11: (PEG20k)2(AU)-NMU-8 (peptide)
peptide: {(PEG20k)2-AU}-YFLFRPRN-NH2
modifications: reading uncertain; also: printed as (PEG20k)2(AU)-NMU-8
B12: (PEG20k)2(AMBz)-NMU-8 (peptide)
peptide: {(PEG20k)2-AMBz}-YFLFRPRN-NH2
B13: (PEG20k)2(ACP)-NMU-8 (peptide)
peptide: {(PEG20k)2-ACP}-YFLFRPRN-NH2
B14: (PEG20k)2-NMU-8 (peptide)
peptide: {(PEG20k)2}-YFLFRPRN-NH2
B15: PEG30k(NH-AD)-NMU-8 (peptide)
peptide: {PEG 30 kDa-AD}-YFLFRPRN-NH2
modifications: reading uncertain; also: PEG-aldehyde bound by reductive amination (NH linkage), printed as PEG30k(NH-AD)-NMU-8
B16: PEG30k(NH-AU)-NMU-8 (peptide)
peptide: {PEG 30 kDa-AU″}-YFLFRPRN-NH2
B17: PEG30k(NH-AMBz)-NMU-8 (peptide)
peptide: {PEG 30 kDa-AMBz}-YFLFRPRN-NH2
modifications: also: PEG attached by reductive amination (NH link) to linker
B18: PEG30k(NH-ACP)-NMU-8 (peptide)
peptide: {PEG 30 kDa-ACP}-YFLFRPRN-NH2
modifications: also: PEG-aldehyde bound by reductive amination (NH linkage)
B19: PEG30k(NH-AP)-NMU-8 (peptide)
peptide: {PEG 30 kDa-AP}-YFLFRPRN-NH2
modifications: reading uncertain; also: printed as PEG30k(NH-AP)-NMU-8
B20: PEG30k(NH-AB)-NMU-8 (peptide)
peptide: {PEG 30 kDa-AB}-YFLFRPRN-NH2
modifications: reading uncertain; also: PEG attached by reductive amination (NH link) to linker, printed as Try-Phe-Leu-Phe-Arg-Pro-Arg-Asn-NH2
B21: PEG30k-NH-NMU-8 (peptide)
peptide: {PEG 30 kDa}-YFLFRPRN-NH2
B22: PEG30k(NHAc)-Cys-NMU-8 (peptide)
peptide: C(PEG 30 kDa)FFLFRPRN-NH2
B23: PEG30k(Traut)-NMU-8 (peptide)
peptide: {PEG‑maleimide 30 kDa-Traut's reagent}-YFLFRPRN-NH2
B24: NMU-8 (peptide)
peptide: YFLFRPRN-NH2
B25: 125I-NMU8 (radiation labeled ligand) (peptide)
peptide: YFLFRPRN-NH2
modifications: also: 125I label (position not given here)
B26: PEG30k(ACP)-NMU-8 (peptide)
peptide: {PEG30k-ACP}-YFLFRPRN-NH2
B27: PEG30k(AP)-NMU-8 (peptide)
peptide: {PEG 30 kDa-AP}-YFLFRPRN-NH2
modifications: reading uncertain; also: printed as PEG30k(AP)-NMU-8
B28: PEG30k(AB)-NMU-8 (peptide)
peptide: {PEG 30 kDa-AB}-YFLFRPRN-NH2
modifications: reading uncertain; also: printed as PEG30k(AB)-NMU-8
B29: (PEG20k)2(AP)-NMU-8 (peptide)
peptide: {(PEG20k)2-AP}-YFLFRPRN-NH2
modifications: reading uncertain; also: printed as (PEG20k)2(AP)-NMU-8
B30: (PEG20k)2(AB)-NMU-8 (peptide)
peptide: {(PEG20k)2-AB}-YFLFRPRN-NH2
modifications: reading uncertain; also: printed as (PEG20k)2(AB)-NMU-8

Target: T1, human FM3 (NMUR1)
Test: competition with 125I-NMU8, human FM3/CHO membrane fraction, filter binding
Protocol: (§1) The protein concentrations in the FM3 and TGR1 membrane fractions were 12 and 22 μg/ml, respectively.
(§2) Namely, dilution strings of NMU derivatives and PEG conjugates were provided and diluted membrane fraction solutions (200 μl) were added. The mixture was thoroughly blended with a Vortex and the labeled ligand 2 μl (final concentration […]) was added to carry out the reaction at 25° C. for 60 min. According to the aforementioned operations, the amount of binding of the labeled ligand remaining in the filter was measured and the IC50 values were calculated using graph pad PRISM (FIG. 4A (FM3 receptor binding), FIG. 4B (TGR1 receptor binding), FIG. 4C (FM3 receptor binding), FIG. 4D (TGR1 receptor binding) Table 9).
An IC50 of 7.5 nM was found for B1 in this work.
An IC50 of 11 nM was found for B2 in this work.
An IC50 of 51 nM was found for B3 in this work.
An IC50 of 4.5 nM was found for B4 in this work.
An IC50 of 5.7 nM was found for B5 in this work.
An IC50 of 2.3 nM was found for B6 in this work.
An IC50 of 130 nM was found for B7 in this work.
An IC50 of 60 nM was found for B8 in this work.
An IC50 of 75 nM was found for B9 in this work.
An IC50 of 380 nM was found for B10 in this work.
An IC50 of 330 nM was found for B11 in this work.
An IC50 of 210 nM was found for B12 in this work.
An IC50 of 280 nM was found for B13 in this work.
An IC50 of 270 nM was found for B14 in this work.
An IC50 of 7 nM was found for B15 in this work.
An IC50 of 18 nM was found for B16 in this work.
An IC50 of 6.7 nM was found for B17 in this work.
An IC50 of 7.3 nM was found for B18 in this work.
An IC50 of 6.3 nM was found for B19 in this work.
An IC50 of 2.4 nM was found for B20 in this work.
An IC50 of 11 nM was found for B21 in this work.
An IC50 of 18 nM was found for B22 in this work.
An IC50 of 6.4 nM was found for B23 in this work.
An IC50 of 0.19 nM was found for B24 in this work.

The binders below were run against human TGR1 (NMUR2) (human) (assay: Scatchard analysis, radioligand filter binding, human TGR1/CHO membrane fraction).
Chain of human TGR1 (NMUR2) (human) (chain, as listed by the source): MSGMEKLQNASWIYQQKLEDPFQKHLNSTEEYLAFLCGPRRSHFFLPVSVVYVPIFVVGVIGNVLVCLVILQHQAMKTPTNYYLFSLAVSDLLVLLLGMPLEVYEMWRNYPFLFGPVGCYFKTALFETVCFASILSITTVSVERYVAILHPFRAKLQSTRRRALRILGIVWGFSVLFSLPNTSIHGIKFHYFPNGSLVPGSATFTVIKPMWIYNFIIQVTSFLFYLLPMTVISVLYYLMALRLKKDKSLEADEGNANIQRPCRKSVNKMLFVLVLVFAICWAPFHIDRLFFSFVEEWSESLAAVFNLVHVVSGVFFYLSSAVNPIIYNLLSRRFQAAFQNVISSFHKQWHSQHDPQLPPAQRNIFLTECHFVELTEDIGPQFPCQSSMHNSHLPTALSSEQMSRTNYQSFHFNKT
Protocol: as §1
A Kd of 135000 nM was found for B25 in this work.

Target: T1, human FM3 (NMUR1)
Test: competition with 125I-NMU8, membrane fraction, filter binding; only one value in the row, read as the FM3 column
Protocol: as §1, §2
An IC50 of 59 nM was found for B26 in this work.
An IC50 of 64 nM was found for B27 in this work.
An IC50 of 82 nM was found for B28 in this work.
An IC50 of 230 nM was found for B29 in this work.
An IC50 of 380 nM was found for B30 in this work.

Target: T1, human FM3 (NMUR1)
Test: Scatchard analysis, radioligand filter binding, human FM3/CHO membrane fraction
Protocol: as §1
A Kd of 164000 nM was found for B25 in this work.

The binders below were run against human TGR1 (NMUR2) (human) (assay: competition with 125I-NMU8, human TGR1/CHO membrane fraction, filter binding).
Protocol: as §1, §2
An IC50 of 4.1 nM was found for B1 in this work.
An IC50 of 11 nM was found for B2 in this work.
An IC50 of 26 nM was found for B3 in this work.
An IC50 of 4.3 nM was found for B4 in this work.
An IC50 of 66 nM was found for B5 in this work.
An IC50 of 1.9 nM was found for B6 in this work.
An IC50 of 120 nM was found for B7 in this work.
An IC50 of 54 nM was found for B8 in this work.
An IC50 of 110 nM was found for B9 in this work.
An IC50 of 730 nM was found for B10 in this work.
An IC50 of 560 nM was found for B11 in this work.
An IC50 of 320 nM was found for B12 in this work.
An IC50 of 420 nM was found for B13 in this work.
An IC50 of 210 nM was found for B14 in this work.
An IC50 of 32 nM was found for B15 in this work.
An IC50 of 22 nM was found for B16 in this work.
An IC50 of 9.4 nM was found for B17 in this work.
An IC50 of 7.9 nM was found for B18 in this work.
An IC50 of 6.9 nM was found for B19 in this work.
An IC50 of 2.5 nM was found for B20 in this work.
An IC50 of 11 nM was found for B21 in this work.
An IC50 of 9.1 nM was found for B22 in this work.
An IC50 of 0.089 nM was found for B24 in this work.
